Results from patent publication US12746270 (dated 2026).

Target: human megalin (human)
Experiment: SPR

Sequence of human megalin (human) (O00711 whole entry): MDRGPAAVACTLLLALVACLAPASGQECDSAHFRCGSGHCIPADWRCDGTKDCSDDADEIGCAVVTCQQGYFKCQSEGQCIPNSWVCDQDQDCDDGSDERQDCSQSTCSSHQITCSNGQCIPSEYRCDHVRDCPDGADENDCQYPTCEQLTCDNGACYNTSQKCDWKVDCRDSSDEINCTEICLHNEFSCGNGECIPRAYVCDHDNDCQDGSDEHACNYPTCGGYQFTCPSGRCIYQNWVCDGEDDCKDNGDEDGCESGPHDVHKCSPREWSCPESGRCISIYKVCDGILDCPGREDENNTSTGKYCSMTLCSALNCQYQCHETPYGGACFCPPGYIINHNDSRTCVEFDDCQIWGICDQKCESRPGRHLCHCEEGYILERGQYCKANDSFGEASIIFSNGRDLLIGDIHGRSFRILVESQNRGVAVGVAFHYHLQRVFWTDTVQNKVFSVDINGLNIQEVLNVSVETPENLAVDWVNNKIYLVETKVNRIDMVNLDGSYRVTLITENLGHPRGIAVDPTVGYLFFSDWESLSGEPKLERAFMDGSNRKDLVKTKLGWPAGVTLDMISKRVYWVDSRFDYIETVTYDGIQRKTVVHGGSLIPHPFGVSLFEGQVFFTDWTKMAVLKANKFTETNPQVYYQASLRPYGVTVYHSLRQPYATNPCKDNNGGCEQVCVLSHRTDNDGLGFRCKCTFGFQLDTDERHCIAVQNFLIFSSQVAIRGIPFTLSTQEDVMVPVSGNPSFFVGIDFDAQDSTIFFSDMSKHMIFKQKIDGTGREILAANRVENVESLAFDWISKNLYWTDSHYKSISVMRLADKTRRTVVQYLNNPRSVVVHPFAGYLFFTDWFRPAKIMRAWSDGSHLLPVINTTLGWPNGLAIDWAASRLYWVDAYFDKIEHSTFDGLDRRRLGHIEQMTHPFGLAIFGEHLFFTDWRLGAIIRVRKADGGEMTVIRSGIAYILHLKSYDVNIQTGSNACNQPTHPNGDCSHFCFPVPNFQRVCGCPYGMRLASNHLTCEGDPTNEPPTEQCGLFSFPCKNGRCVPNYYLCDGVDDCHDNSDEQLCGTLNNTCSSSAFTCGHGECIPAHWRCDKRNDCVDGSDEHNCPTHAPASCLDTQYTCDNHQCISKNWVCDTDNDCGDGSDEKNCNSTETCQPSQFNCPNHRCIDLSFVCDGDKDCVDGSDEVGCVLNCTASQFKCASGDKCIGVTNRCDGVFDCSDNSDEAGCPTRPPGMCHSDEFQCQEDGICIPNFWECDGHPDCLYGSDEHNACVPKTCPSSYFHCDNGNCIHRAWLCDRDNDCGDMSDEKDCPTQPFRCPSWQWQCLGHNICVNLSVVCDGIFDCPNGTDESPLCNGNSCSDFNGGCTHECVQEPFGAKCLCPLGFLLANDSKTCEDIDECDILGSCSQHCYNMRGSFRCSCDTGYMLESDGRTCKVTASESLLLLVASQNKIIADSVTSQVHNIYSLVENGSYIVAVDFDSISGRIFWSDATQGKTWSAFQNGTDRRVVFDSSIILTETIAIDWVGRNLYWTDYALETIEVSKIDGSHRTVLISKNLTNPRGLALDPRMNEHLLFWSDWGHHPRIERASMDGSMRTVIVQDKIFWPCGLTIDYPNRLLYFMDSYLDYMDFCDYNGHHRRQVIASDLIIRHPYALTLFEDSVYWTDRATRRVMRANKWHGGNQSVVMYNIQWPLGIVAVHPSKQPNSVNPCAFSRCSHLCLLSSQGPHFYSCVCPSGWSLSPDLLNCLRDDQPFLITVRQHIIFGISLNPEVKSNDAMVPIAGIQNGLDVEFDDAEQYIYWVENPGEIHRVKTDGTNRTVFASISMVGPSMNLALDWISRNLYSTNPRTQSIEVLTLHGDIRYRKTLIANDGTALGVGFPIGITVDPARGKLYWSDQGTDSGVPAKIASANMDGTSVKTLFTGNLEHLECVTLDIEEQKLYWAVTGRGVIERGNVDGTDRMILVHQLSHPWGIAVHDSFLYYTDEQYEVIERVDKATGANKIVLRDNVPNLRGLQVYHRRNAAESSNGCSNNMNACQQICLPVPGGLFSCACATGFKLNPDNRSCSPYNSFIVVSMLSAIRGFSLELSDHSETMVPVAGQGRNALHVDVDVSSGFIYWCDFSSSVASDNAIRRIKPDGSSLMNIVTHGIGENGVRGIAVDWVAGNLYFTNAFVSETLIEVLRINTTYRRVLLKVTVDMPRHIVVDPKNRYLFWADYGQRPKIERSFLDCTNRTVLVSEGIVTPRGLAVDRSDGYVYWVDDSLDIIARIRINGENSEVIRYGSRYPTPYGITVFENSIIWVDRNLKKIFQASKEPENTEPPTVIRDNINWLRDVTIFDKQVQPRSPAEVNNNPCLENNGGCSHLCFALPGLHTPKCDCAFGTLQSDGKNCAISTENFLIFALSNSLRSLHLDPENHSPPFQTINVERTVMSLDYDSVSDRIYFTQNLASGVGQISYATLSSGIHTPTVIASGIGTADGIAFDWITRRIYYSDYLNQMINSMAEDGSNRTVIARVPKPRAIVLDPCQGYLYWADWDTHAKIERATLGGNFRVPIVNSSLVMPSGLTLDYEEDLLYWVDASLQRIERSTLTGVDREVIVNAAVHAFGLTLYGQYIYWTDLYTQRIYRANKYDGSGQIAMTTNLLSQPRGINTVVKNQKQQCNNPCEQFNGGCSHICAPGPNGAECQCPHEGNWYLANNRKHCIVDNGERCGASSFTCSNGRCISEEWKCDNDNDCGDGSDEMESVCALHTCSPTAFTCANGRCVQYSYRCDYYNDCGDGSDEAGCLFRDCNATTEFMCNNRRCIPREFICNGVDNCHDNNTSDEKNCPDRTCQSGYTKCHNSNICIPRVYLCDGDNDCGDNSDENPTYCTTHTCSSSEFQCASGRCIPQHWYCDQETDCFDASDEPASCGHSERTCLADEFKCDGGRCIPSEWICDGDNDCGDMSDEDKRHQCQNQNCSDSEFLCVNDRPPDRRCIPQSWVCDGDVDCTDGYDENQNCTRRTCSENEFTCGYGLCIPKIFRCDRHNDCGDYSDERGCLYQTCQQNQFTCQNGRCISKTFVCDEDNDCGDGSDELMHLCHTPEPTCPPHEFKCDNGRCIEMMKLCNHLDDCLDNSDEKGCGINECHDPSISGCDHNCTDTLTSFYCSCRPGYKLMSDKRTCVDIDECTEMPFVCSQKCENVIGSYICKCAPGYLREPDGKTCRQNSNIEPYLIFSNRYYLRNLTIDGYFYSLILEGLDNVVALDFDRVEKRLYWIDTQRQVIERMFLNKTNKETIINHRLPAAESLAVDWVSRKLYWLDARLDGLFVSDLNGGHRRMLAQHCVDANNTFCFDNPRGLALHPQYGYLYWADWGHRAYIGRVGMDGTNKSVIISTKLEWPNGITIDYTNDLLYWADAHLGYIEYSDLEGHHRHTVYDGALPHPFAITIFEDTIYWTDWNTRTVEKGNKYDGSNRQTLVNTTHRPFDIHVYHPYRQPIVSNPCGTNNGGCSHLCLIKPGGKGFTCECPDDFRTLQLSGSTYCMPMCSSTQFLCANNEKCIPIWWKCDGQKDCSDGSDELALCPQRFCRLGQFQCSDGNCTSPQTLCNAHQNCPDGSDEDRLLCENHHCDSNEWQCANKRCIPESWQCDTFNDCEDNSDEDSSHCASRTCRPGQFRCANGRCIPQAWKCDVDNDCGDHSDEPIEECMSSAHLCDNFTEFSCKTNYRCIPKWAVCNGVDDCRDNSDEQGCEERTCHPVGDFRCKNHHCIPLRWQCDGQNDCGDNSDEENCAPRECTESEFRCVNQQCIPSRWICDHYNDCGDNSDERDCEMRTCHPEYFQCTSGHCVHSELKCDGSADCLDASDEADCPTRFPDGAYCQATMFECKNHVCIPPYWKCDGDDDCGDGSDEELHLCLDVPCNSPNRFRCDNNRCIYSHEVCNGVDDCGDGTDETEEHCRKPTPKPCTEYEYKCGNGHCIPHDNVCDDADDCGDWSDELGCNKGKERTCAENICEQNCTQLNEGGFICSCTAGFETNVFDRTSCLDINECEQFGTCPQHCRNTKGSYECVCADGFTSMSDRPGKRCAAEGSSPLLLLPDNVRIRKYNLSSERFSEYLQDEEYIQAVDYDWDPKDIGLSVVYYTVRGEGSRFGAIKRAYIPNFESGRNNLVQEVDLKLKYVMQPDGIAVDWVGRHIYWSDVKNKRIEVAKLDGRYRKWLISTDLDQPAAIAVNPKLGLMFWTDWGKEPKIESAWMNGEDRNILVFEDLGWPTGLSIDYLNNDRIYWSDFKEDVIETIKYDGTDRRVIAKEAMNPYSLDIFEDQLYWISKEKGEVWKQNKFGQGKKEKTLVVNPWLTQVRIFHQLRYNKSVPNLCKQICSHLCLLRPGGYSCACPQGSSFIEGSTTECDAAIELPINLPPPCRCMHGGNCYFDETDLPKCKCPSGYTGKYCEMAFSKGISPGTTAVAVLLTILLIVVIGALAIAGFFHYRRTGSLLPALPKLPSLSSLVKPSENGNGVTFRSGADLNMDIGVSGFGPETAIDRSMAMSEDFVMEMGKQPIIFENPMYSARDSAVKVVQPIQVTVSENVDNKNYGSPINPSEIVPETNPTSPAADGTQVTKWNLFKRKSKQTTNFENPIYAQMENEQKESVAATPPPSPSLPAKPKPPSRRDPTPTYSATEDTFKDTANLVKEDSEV

B1: WT human NGAL (ligand-free) (protein)
chain: QDSTSDLIPAPPLSKVPLQQNFQDNQFQGKWYVVGLAGNAILREDKDPQKMYATIYELKEDKSYNVTSVLFRKKKCDYWIRTFVPGCQPGEFTLGNIKSYPGLTSYLVRVVSTNYNQHAMVFFKKVSQNREYFKITLYGRTKELTSELKENFIRFSKSLGLPENHIVFPVPIDQCIDG
For B1, which Kd is on record?
The Kd was about 60 nM.
